Results: patent US20230027475A1 (ADMARE THERAPEUTICS SOCIETY, published 2023)

T1: Vaccinia virus A56 antigen (Wyeth VV sequence) expressed on HEK cells (Vaccinia virus, Wyeth strain, UniProt P20978 17-315)
T1 construct: also called HEK-A56; HEK-A56 (GFP)
T1 chain: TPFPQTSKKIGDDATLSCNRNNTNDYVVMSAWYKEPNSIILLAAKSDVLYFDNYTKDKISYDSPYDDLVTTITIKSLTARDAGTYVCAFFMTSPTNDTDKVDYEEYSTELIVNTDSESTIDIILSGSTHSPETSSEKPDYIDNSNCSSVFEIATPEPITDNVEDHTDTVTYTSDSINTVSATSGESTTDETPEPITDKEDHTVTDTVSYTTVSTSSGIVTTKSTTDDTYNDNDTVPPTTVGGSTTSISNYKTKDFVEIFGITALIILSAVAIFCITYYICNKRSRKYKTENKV

T2: A56.hFc (Vaccinia virus, Wyeth strain, UniProt P20978 17-279)
T2 construct: also called A56 human Fc fusion protein; A56 protein
T2 chain: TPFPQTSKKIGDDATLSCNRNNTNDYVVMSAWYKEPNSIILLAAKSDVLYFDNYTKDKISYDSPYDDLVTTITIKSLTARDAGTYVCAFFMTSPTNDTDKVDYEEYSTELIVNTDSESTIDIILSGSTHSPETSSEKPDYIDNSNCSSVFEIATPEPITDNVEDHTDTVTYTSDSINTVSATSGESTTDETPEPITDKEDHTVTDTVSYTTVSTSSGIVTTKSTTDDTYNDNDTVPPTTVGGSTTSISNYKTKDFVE


Key:
[1] = molecular target: T3, Vaccinia virus B5 antigen, Western Reserve strain VVdd (eGFP) (Vaccinia virus, Western Reserve strain, UniProt Q01227 18-317); assay: flow cytometry on VVdd (eGFP)-infected A549 cells
T3 construct: also called B5 on VVdd (eGFP)-infected cells

[2] = molecular target: T1, Vaccinia virus A56 antigen (Wyeth VV …); assay: immunohistochemistry (DAB) on histogel sections of HEK-A56 cells
[3] = molecular target: T3, Vaccinia virus B5 antigen, Western …; assay: flow cytometry on VVdd (eGFP)-infected A549 cells; remark: listed apart in the source
[4] = molecular target: T3, Vaccinia virus B5 antigen, Western …; assay: flow cytometry on VVdd (eGFP)-infected HT29 cells
[5] = molecular target: T4, B5.hFc (Vaccinia virus, Wyeth strain, UniProt O57254 18-279); assay: SPR Biacore T200, antibody amine-coupled, […]
T4 construct: also called B5.hFc soluble antigen; B5 human Fc fusion protein

[6] = molecular target: T4, B5.hFc; assay: SPR Biacore T200, antibody amine-coupled, B5.hFc as analyte, 1:1 Langmuir fit
[7] = molecular target: T1, Vaccinia virus A56 antigen (Wyeth VV …); assay: flow cytometry on HEK-A56 (GFP) cells
[8] = molecular target: T2, A56.hFc; assay: SPR Biacore T200, antibody amine-coupled, […]
[9] = molecular target: T5, Vaccinia virus B5 antigen (Wyeth VV sequence) expressed on HEK cells (Vaccinia virus, Wyeth strain, UniProt O57254 18-317); assay: flow cytometry on HEK-B5 (GFP) cells (panel 'HEKB5')
T5 construct: also called HEK-B5; HEK-B5 (GFP)

[10] = molecular target: T2, A56.hFc; assay: SPR Biacore T200, antibody amine-coupled, A56.hFc as analyte, 1:1 Langmuir fit
[11] = molecular target: T6, Vaccinia virus A56 antigen, Western Reserve strain VVdd (eGFP) (Vaccinia virus, Western Reserve strain, UniProt Q01218 17-314); assay: ELISA on plate-coated VVdd (eGFP) virus particles, HRP anti-hIgG Fc, lower panel
T6 construct: also called A56 on VVdd (eGFP)-infected cells

[12] = molecular target: T6, Vaccinia virus A56 antigen, Western …
[13] = molecular target: T6, Vaccinia virus A56 antigen, Western …; assay: flow cytometry on VVdd (eGFP)-infected A549 cells
[14] = molecular target: T5, Vaccinia virus B5 antigen (Wyeth VV …); assay: immunohistochemistry (DAB) on histogel sections of HEK-B5 cells
[15] = molecular target: T5, Vaccinia virus B5 antigen (Wyeth VV …); assay: flow cytometry on HEK-B5 (GFP) cells
[16] = molecular target: T3, Vaccinia virus B5 antigen, Western …; assay: ELISA on plate-coated VVdd (eGFP) virus particles, HRP anti-hIgG Fc, upper panel

| Binder | EC50 [1] | binding result [7] | Kd [8] | binding result [9] | koff [10] | kon [10] | EC50 [13] | also measured |
| --- | --- | --- | --- | --- | --- | --- | --- | --- |
| A073 (antibody, V domains shown, also called A073 anti-B5, Rb IgG; anti-B5-PE (A073, Rb IgG)) VH: QEQLEESGGGLVKPEGSLTLTCTASGFSFSSSYYMCWVRQAPGRGLEWIACIYTSSGSAYYANWAKGRFTISRTSSTTVTLQMTRLTAADTATYFCVRNAVGSSYYLYLWGPGTLVTVSS VL: QVLTQTPSPVSAAVGGTVTISCQASQSVAGNNYLSWYQQKPGQPPNLLIYSVSTLASGVPSRFKGSGSGTQFTLTISDLECDDAATYYCQGYYNDGIWAFGGGTEVVVK | 3 nM |  |  |  |  |  |  | binding result [2]: no binding (tested: 10 ug/mL) |
| A058 (antibody, V domains shown, also called A058 anti-B5, Rb/Mu IgG2a; A048/A058/A073) VH: QEQLEESGGGLVKPEGSLTLTCTASGFSFSSSYYMCWVRQAPGRGLEWIACIYTSSGSAYYANWAKGRFTISRTSSTTVTLQMTRLTAADTATYFCVRNAVGSSYYLYLWGPGTLVTVSS VL: QVLTQTPSPVSAAVGGTVTISCQASQSVAGNNYLSWYQQKPGQPPNLLIYSVSTLASGVPSRFKGSGSGTQFTLTISDLECDDAATYYCQGYYNDGIWAFGGGTEVVVK | 3 nM |  |  |  |  |  |  | binding result [2]: no binding (tested: 10 ug/mL) |
| A048 (antibody, V domains shown, also called anti-B5 A048 hIgG1) VH: QEQLEESGGGLVKPEGSLTLTCTASGFSFSSSYYMCWVRQAPGRGLEWIACIYTSSGSAYYANWAKGRFTISRTSSTTVTLQMTRLTAADTATYFCVRNAVGSSYYLYLWGPGTLVTVSS VL: QVLTQTPSPVSAAVGGTVTISCQASQSVAGNNYLSWYQQKPGQPPNLLIYSVSTLASGVPSRFKGSGSGTQFTLTISDLECDDAATYYCQGYYNDGIWAFGGGTEVVVK | 9 nM |  |  |  |  |  |  | EC50 [3]: 6 nM; EC50 [4]: 1.1 nM; Kd [5]: 0.745 nM; koff [6]: 2.21e-05 s⁻¹; kon [6]: 29700 M⁻¹ s⁻¹ |
| A050 (antibody, V domains shown, also called A050 (A56); anti-A56 rabbit antibody A050 hIgG1) VH: QSLEESGGDLVKPGASLTLTCTASGFSFSSSYWLCWARQAPGKGPEWIACIYNGDGSTHYASWAKGRFTISKSSSTTVTLQMTSLTAADTATYFCARDYTYNFYTYGFNLWGPGTLVTVSS VL: FELTQTPSSVEAAVGGTVTINCQASQSVNIWASWYQQKPGQPPKLLIYKASTLASGVPSRFKGSGSGTEFTLTISDLECADAATYYCQGGYPSSSSGWAFGGGTEVVVK |  | binds | 0.507 nM | no binding (tested: about 330 nM) | 5.07e-05 s⁻¹ | 99800 M⁻¹ s⁻¹ |  | binding result [11]: binds |
| A047 (antibody, V domains shown, also called A047 (A56); anti-A56 rabbit antibody A047 hIgG1) VH: QEQLEESGGDLVKPEGSLTLTCTASGFSFSSSYWICWVRQAPGKGLEWIACIYAGSGGSTYYATWAKGRFTISKTSSTTVTLQMTSLTAADTASYFCVRAYSDRSGGYSFNLWGPGTLVTVSS VL: QVLTQTASPVSAAVGGTVTINCQASQSVDNNNYLAWYQQKPGQPPKQLIYSASSLASGVPSRFKGSGSGTQFTLTISDVQCDDAATYYCLGSYDCSDADCYAFGGGTEVVVK |  | binds | 2.34 nM | no binding (tested: about 330 nM) | 4.5e-05 s⁻¹ | 19200 M⁻¹ s⁻¹ |  | binding result [11]: binds |
| A054 (antibody, V domains shown, also called A054 (A56); anti-A56 rabbit antibody A054 hIgG1) VH: QEQVVESGGGLVKPGASLTLTCTASGFTLSSSYWICWVRQAPGKGPEWIACTYNGDGSTHYASWAKGRFTISKSSSTTVTLQMTSLTAADTATYFCARDYTDAFYTYGFNLWGPGTLVTVSS VL: DIVMTQTPASVSEPVGGTVTIKCQASQSTSSYLAWYQQKPGQPPKLLIYRASSLASGVPSRFKGSGSATEFTLTISDLECADAATYYCQTGFYGSSGHTFGGGTEVVVK |  | binds | 15.3 nM | no binding (tested: about 330 nM) | 0.0141 s⁻¹ | 925000 M⁻¹ s⁻¹ |  | EC50 (read off the curve) [12]: ~5 nM |
| A059 (antibody, V domains shown, also called A059 anti-A56, Rb/Mu IgG2a; A049/A059/A056) VH: QSLEESGGDLVKPGASLTLTCTASGIDFSDIYYISWVRQAPGKGLEWIACTYAGSSGSTYYATWAKGRFTISKASSTTVTLQMTSLTAADTATYFCARDRYPGTSGRVYGMDLWGPGTLVTVSS VL: VVMTQTPSSVSEPVGGTVTIKCQASQSISDLLSWYQQKPGQPPKLLIYSASTLASGVSSRFKGSGSGTEFTLTISDLECADAATYYCQCNYYSPTYGNGFGGGTEVVVK |  |  |  |  |  |  | 5 nM | binding result [14]: no binding (tested: 10 ug/mL) |
| A056 (antibody, V domains shown, also called A056 anti-A56, Rb IgG; anti-A56-PE (A056, Rb IgG)) VH: QSLEESGGDLVKPGASLTLTCTASGIDFSDIYYISWVRQAPGKGLEWIACTYAGSSGSTYYATWAKGRFTISKASSTTVTLQMTSLTAADTATYFCARDRYPGTSGRVYGMDLWGPGTLVTVSS VL: VVMTQTPSSVSEPVGGTVTIKCQASQSISDLLSWYQQKPGQPPKLLIYSASTLASGVSSRFKGSGSGTEFTLTISDLECADAATYYCQCNYYSPTYGNGFGGGTEVVVK |  |  |  |  |  |  | 16 nM | binding result [14]: no binding (tested: 10 ug/mL) |
| A049 (antibody, V domains shown, also called A049 (A56); A049 anti-A56 hIgG1) VH: QSLEESGGDLVKPGASLTLTCTASGIDFSDIYYISWVRQAPGKGLEWIACTYAGSSGSTYYATWAKGRFTISKASSTTVTLQMTSLTAADTATYFCARDRYPGTSGRVYGMDLWGPGTLVTVSS VL: VVMTQTPSSVSEPVGGTVTIKCQASQSISDLLSWYQQKPGQPPKLLIYSASTLASGVSSRFKGSGSGTEFTLTISDLECADAATYYCQCNYYSPTYGNGFGGGTEVVVK |  |  | ≤ 0.1 nM |  | 2.27e-05 s⁻¹ | 395000 M⁻¹ s⁻¹ | 14 nM |  |
| A051 (antibody, V domains shown, also called anti-B5 rabbit antibody A051 hIgG1) VH: QEQVEESGGGLAKPGASLTLTCEASGFTLSSYWMCWVRQAPGKGLEWIACIYGGSSGSTYYSNWAKGRFTISKTSSTTVTLQMTSLTAADTATYFCARDGSTWDYFRLWGPGTLVTVSS VL: YDMTQTPSSVEAAVGGTVTIKCQASQSINTNYLSWYQQKPGQPPKLLIYQASTLESGVPSRFKGSGSGTEYTLTISDLECADAATYYCQGYYTVENIGNPFGGGTEVVVK |  |  |  |  |  |  |  | binding result [15]: binds; binding result [16]: binds |
